Test results from patent publication US20070287629A1 (MAX PLANCK GESELLSCHAFT ZUR FOERDERUNG DER WISSENSCHAFTEN E …, published 2007).

Legend:
[1] = target: 14-3-3-FC complex (tobacco 14-3-3c saturated with fusicoccin) (Nicotiana tabacum (tobacco)) (UniProt P93343); assay: ITC; peptide into the 14-3-3-FC complex
[2] = target: Tobacco 14-3-3c (Gene bank AAC49892, amino acids 1-260 with an N-terminal His-tag) (Nicotiana tabacum (tobacco)) (UniProt P93343); assay: ITC; phosphopeptide (0.5 mM) titrated into 14-3-3c (0.05 mM), 25 mM HEPES pH 6.5, 35 °C, single-site fit; peptide to unliganded 14-3-3c, no fusicoccin; ITC, pH 6.5, 35 C
[3] = target: Tobacco 14-3-3c (Gene bank AAC49892, amino acids 1-260 with an N-terminal His-tag) (Nicotiana tabacum (tobacco)) (UniProt P93343); assay: isothermal titration calorimetry, peptide titrated into 14-3-3c alone, 35 °C
[4] = target: 14-3-3-FC complex (tobacco 14-3-3c saturated with fusicoccin) (Nicotiana tabacum (tobacco)) (UniProt P93343); assay: isothermal titration calorimetry, […]
[5] = target: 14-3-3-FC complex (tobacco 14-3-3c saturated with fusicoccin) (Nicotiana tabacum (tobacco)) (UniProt P93343)
[6] = target: Tobacco 14-3-3c (Gene bank AAC49892, amino acids 1-260 with an N-terminal His-tag) (Nicotiana tabacum (tobacco)) (UniProt P93343); assay: ITC; peptide into unliganded 14-3-3c
[7] = target: the molecule itself; assay: X-ray crystal structure (homodimer)
Method: Tobacco 14-3-3c (Gene bank AAC49892, amino acids 1-260 with an N-terminal His-tag) was expressed recombinantly in E.coli and purified via standard procedures. Fusicoccin was purchased from Sigma. Phosphopeptides were synthesized by Biosyntan (Berlin). […] They were soaked with ligands for 4 hours (fusicoccin) or 20 minutes (peptide) in precipitant solution supplemented to 30% PEG 400 and cryoprotectant (precipitant solution supplemented to 35% PEG 400, 8% Isopropanol) prior to freezing in liquid N₂.

Molecule	-TΔS [1] [kcal/mol]	ΔH [1] [kcal/mol]	Kd [2] [µM]	ΔG [3] [kcal/mol]	Kd [4] [µM]	ΔG [4] [kcal/mol]	fold increase of binding affinity by fusicoccin [5] [fold]	-TΔS [6] [kcal/mol]	ΔH [6] [kcal/mol]	binding result [7]
phosphopeptide Gln-Ser-Tyr-pThr-Val (QSYpTV), C-terminal end of PMA2, a H+-ATPase isoform from N. plumbaginifolia	0.4	-11.8	2.5	-8.3	0.027	-11.4	93	1.7	-10	
Tobacco 14-3-3c (Gene bank AAC49892, amino acids 1-260 with an N-terminal His-tag) (other, Expressed in E. coli; one monomer in the asymmetric unit; also called plant 14-3-3c; Nicotiana tabacum 14-3-3 isoform c; not shown: N-terminal His-tag) MAVAPTAREENVYMAKLAEQAERYEEMVEFMEKVSNSLGSEELTVEERNLLSVAYKNVIGARRASWRIISSIEQKEESRGNEEHVNSIREYRSKIENELSKICDGILKLLDAKLIPSAASGDSKVFYLKMKGDYHRYLAEFKTGAERKEAAESTLTAYKAAQDIATTELAPTHPIRLGLALNFSVFYYEILNSPDRACNLAKQAFDEAIAELDTLGEESYKDSTLIMQLLRDNLTLWTSDMQDDGADEIKEDPKPDEAKN										binds
